Paper PMC6677129

Target: repeat domain (RPT) of Pmel17 (human) (UniProt P40967)
Assay: co-sedimentation

percent of RPT left in the supernatant, 0.1 mM LPG: 54% | percent of RPT left in the supernatant, 0.5 mM LPG: 16% | percent of protein in the supernatant, 0 mM LPG: 108% | percent of protein in the supernatant, 10 mM LPG: 92%
Substance: repeat domain (RPT) of Pmel17 (from UniProt P40967 315-444) (domain or fragment)
